The RNAGym collection of RNA variant scans (doi:10.1021/acssynbio.7b00057)

B1: Pistol ribozyme (parent)
chain: GGGUCGUUGUUCCAUAAUCGCGUGGAUAUGGCACGCAAGUUUCUACCGGGCACCGUAAAUGUCCGACUGGAGCCGUUCGGGCGGCUAUAAACAGACCUCAGGCCCGAAGCGUGGCGGCACCUGCCGCCGGUGGUAAAAAAGAUCGGAAGAGCACACGUCU

Variants of: B1
Test: aptazyme ON/OFF ratio, guanine; higher = stronger switching; co-transcriptional cleavage with and without guanine

Variant	aptazyme ON/OFF ratio
GGGUCGCGCCGUUAUAAUCGCGUGGAUAUGGCACGCAAGUUUCUACCGGGCACCGUAAAUGUCCGACUGGAGCCGUUCGGGCGGCUAUAAACAGACCUCAGGCCCGAAGCGUGGCGGCACCUGCCGCCGGUGGUAAAAAAGAUCGGAAGAGCACACGUCU [U7C U8G G9C U10C U11G C12U C13U]	1.07
GGGUCGCGCCGUGAUAAUCGCGUGGAUAUGGCACGCAAGUUUCUACCGGGCACCGUAAAUGUCCGACUGGAGCCGUUCGGGCGGCUAUAAACAGACCUCAGGCCCGAAGCGUGGCGGCACCUGCCGCCGGUGGUAAAAAAGAUCGGAAGAGCACACGUCU [U7C U8G G9C U10C U11G C12U C13G]	1.09
GGGUCGCGCCGUAAUAAUCGCGUGGAUAUGGCACGCAAGUUUCUACCGGGCACCGUAAAUGUCCGACUGGAGCCGUUCGGGCGGCUAUAAACAGACCUCAGGCCCGAAGCGUGGCGGCACCUGCCGCCGGUGGUAAAAAAGAUCGGAAGAGCACACGUCU [U7C U8G G9C U10C U11G C12U C13A]	1.07
GGGUCGCGCCGAGAUAAUCGCGUGGAUAUGGCACGCAAGUUUCUACCGGGCACCGUAAAUGUCCGACUGGAGCCGUUCGGGCGGCUAUAAACAGACCUCAGGCCCGAAGCGUGGCGGCACCUGCCGCCGGUGGUAAAAAAGAUCGGAAGAGCACACGUCU [U7C U8G G9C U10C U11G C12A C13G]	1.06
GGGUCGCGCCGAAAUAAUCGCGUGGAUAUGGCACGCAAGUUUCUACCGGGCACCGUAAAUGUCCGACUGGAGCCGUUCGGGCGGCUAUAAACAGACCUCAGGCCCGAAGCGUGGCGGCACCUGCCGCCGGUGGUAAAAAAGAUCGGAAGAGCACACGUCU [U7C U8G G9C U10C U11G C12A C13A]	1.12
GGGUCGCGCCGAUAUAAUCGCGUGGAUAUGGCACGCAAGUUUCUACCGGGCACCGUAAAUGUCCGACUGGAGCCGUUCGGGCGGCUAUAAACAGACCUCAGGCCCGAAGCGUGGCGGCACCUGCCGCCGGUGGUAAAAAAGAUCGGAAGAGCACACGUCU [U7C U8G G9C U10C U11G C12A C13U]	1.05
GGGUCGCGCCACUAUAAUCGCGUGGAUAUGGCACGCAAGUUUCUACCGGGCACCGUAAAUGUCCGACUGGAGCCGUUCGGGCGGCUAUAAACAGACCUCAGGCCCGAAGCGUGGCGGCACCUGCCGCCGGUGGUAAAAAAGAUCGGAAGAGCACACGUCU [U7C U8G G9C U10C U11A C13U]	1.21
GGGUCGCGCCACGAUAAUCGCGUGGAUAUGGCACGCAAGUUUCUACCGGGCACCGUAAAUGUCCGACUGGAGCCGUUCGGGCGGCUAUAAACAGACCUCAGGCCCGAAGCGUGGCGGCACCUGCCGCCGGUGGUAAAAAAGAUCGGAAGAGCACACGUCU [U7C U8G G9C U10C U11A C13G]	1.23
GGGUCGCGCGUACAUAAUCGCGUGGAUAUGGCACGCAAGUUUCUACCGGGCACCGUAAAUGUCCGACUGGAGCCGUUCGGGCGGCUAUAAACAGACCUCAGGCCCGAAGCGUGGCGGCACCUGCCGCCGGUGGUAAAAAAGAUCGGAAGAGCACACGUCU [U7C U8G G9C U10G C12A]	1.21
GGGUCGCGCCGACAUAAUCGCGUGGAUAUGGCACGCAAGUUUCUACCGGGCACCGUAAAUGUCCGACUGGAGCCGUUCGGGCGGCUAUAAACAGACCUCAGGCCCGAAGCGUGGCGGCACCUGCCGCCGGUGGUAAAAAAGAUCGGAAGAGCACACGUCU [U7C U8G G9C U10C U11G C12A]	1.03
GGGUCGCGCCGGCAUAAUCGCGUGGAUAUGGCACGCAAGUUUCUACCGGGCACCGUAAAUGUCCGACUGGAGCCGUUCGGGCGGCUAUAAACAGACCUCAGGCCCGAAGCGUGGCGGCACCUGCCGCCGGUGGUAAAAAAGAUCGGAAGAGCACACGUCU [U7C U8G G9C U10C U11G C12G]	1.09
GGGUCGCGCCGUCAUAAUCGCGUGGAUAUGGCACGCAAGUUUCUACCGGGCACCGUAAAUGUCCGACUGGAGCCGUUCGGGCGGCUAUAAACAGACCUCAGGCCCGAAGCGUGGCGGCACCUGCCGCCGGUGGUAAAAAAGAUCGGAAGAGCACACGUCU [U7C U8G G9C U10C U11G C12U]	1.17
GGGUCGCGCCCGUAUAAUCGCGUGGAUAUGGCACGCAAGUUUCUACCGGGCACCGUAAAUGUCCGACUGGAGCCGUUCGGGCGGCUAUAAACAGACCUCAGGCCCGAAGCGUGGCGGCACCUGCCGCCGGUGGUAAAAAAGAUCGGAAGAGCACACGUCU [U7C U8G G9C U10C U11C C12G C13U]	1.07
GGGUCGCGCCCGAAUAAUCGCGUGGAUAUGGCACGCAAGUUUCUACCGGGCACCGUAAAUGUCCGACUGGAGCCGUUCGGGCGGCUAUAAACAGACCUCAGGCCCGAAGCGUGGCGGCACCUGCCGCCGGUGGUAAAAAAGAUCGGAAGAGCACACGUCU [U7C U8G G9C U10C U11C C12G C13A]	1.19
GGGUCGCGCCCGGAUAAUCGCGUGGAUAUGGCACGCAAGUUUCUACCGGGCACCGUAAAUGUCCGACUGGAGCCGUUCGGGCGGCUAUAAACAGACCUCAGGCCCGAAGCGUGGCGGCACCUGCCGCCGGUGGUAAAAAAGAUCGGAAGAGCACACGUCU [U7C U8G G9C U10C U11C C12G C13G]	1.08
GGGUCGCGCCGCCAUAAUCGCGUGGAUAUGGCACGCAAGUUUCUACCGGGCACCGUAAAUGUCCGACUGGAGCCGUUCGGGCGGCUAUAAACAGACCUCAGGCCCGAAGCGUGGCGGCACCUGCCGCCGGUGGUAAAAAAGAUCGGAAGAGCACACGUCU [U7C U8G G9C U10C U11G]	1.16
GGGUCGCGCCCCCAUAAUCGCGUGGAUAUGGCACGCAAGUUUCUACCGGGCACCGUAAAUGUCCGACUGGAGCCGUUCGGGCGGCUAUAAACAGACCUCAGGCCCGAAGCGUGGCGGCACCUGCCGCCGGUGGUAAAAAAGAUCGGAAGAGCACACGUCU [U7C U8G G9C U10C U11C]	1.04
GGGUCGCGCCCCAAUAAUCGCGUGGAUAUGGCACGCAAGUUUCUACCGGGCACCGUAAAUGUCCGACUGGAGCCGUUCGGGCGGCUAUAAACAGACCUCAGGCCCGAAGCGUGGCGGCACCUGCCGCCGGUGGUAAAAAAGAUCGGAAGAGCACACGUCU [U7C U8G G9C U10C U11C C13A]	1.03
